Blank lines part the entries; values can stand above or below the binder they belong to.
Assays:
[1] = biological target: the molecule itself; assay: SEC-MALS; Superdex 75 with Dawn HELEOS II, three-detector method (MALS/UV/RI), 0.3 mL/min; 100 mM Tris/HCl pH 7.5, 150 mM NaCl, 1 mM EDTA, 10 mM β-ME, 1 mM DPC, 2 mM LDAO; second elution peak of each complex
[2] = biological target: T1, Mpc1^linker: Mpc1 with C-terminal ENLYFQG (TEV site), flexible linker (GGGGS)4, WSHPQFEK and 8×His-tag (Saccharomyces cerevisiae, UniProt P53157 1-130); assay: SEC; monomers refolded alone or pre-mixed 1:1 in LDAO/DPC (2:1), then Superdex 75 10/300 GL in 100 mM Tris/HCl pH 7.5, 150 mM NaCl, 1 mM EDTA, 10 mM β-ME, 1 mM DPC, 2 mM LDAO; peaks analysed by SDS-PAGE with Coomassie staining; conditions: both partners purified
T1 construct: Mpc1, Saccharomyces cerevisiae, NCBI NM_001180945; The extension was added so that Mpc1 and Mpc2 can be told apart by size on SDS-PAGE; no TEV cleavage is described; not shown: 8×His, C-terminal, kept
T1 sequence (looked up): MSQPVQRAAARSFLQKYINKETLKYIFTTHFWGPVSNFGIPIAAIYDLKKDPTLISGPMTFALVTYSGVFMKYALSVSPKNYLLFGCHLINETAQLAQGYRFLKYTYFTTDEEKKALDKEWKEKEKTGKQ

[3] = biological target: T2, Saccharomyces cerevisiae mitochondrial pyruvate carrier 1 (Mpc1) with C-terminal 8×His-tag (Saccharomyces cerevisiae, UniProt P53157 1-130); assay: paramagnetic relaxation enhancement (PRE) NMR; MTSL-labelled monomer co-refolded with 15N-labelled monomer; 1H-15N BEST-TROSY with and without vitamin C; 25 mM NaAc pH 6.0, 50 mM glutamic acid, 50 mM arginine, 10 mM β-ME, 1 mM EDTA, 1 mM DPC, 2 mM LDAO; 308 K, 850 MHz; conditions: both partners purified
T2 construct: Mpc1, Saccharomyces cerevisiae, NCBI NM_001180945; amplified from a cDNA library with printed primers that run from the ATG to the last codon before the stop; 15N-labelled where it was the observed partner in NMR; The reverse primer carries a BamHI site, so a few vector-coded residues may lie between Mpc1 and the His-tag (surmised); also called 15N-Mpc1; yeast Mpc1
T2 sequence (looked up): T1 sequence (looked up)

[4] = biological target: T3, Saccharomyces cerevisiae mitochondrial pyruvate carrier 1 (Mpc1) with C-terminal 8×His-tag (Saccharomyces cerevisiae), P53157; assay: SEC-MALS; Superdex 75 with Dawn HELEOS II, three-detector method (MALS/UV/RI), 0.3 mL/min; 100 mM Tris/HCl pH 7.5, 150 mM NaCl, 1 mM EDTA, 10 mM β-ME, 1 mM DPC, 2 mM LDAO; second elution peak of each complex; conditions: remark: other sources report otherwise
T3 chain: T1 sequence (looked up)

stoichiometry N [2]: ~1
B1: Saccharomyces cerevisiae mitochondrial pyruvate carrier 2 (Mpc2) with C-terminal 8×His-tag (natural protein, UniProt P38857 1-129, looked up)
chain: MSTSSVRFAFRRFWQSETGPKTVHFWAPTLKWGLVFAGFSDMKRPVEKISGAQNLSLLSTALIWTRWSFVIKPRNILLASVNSFLCLTAGYQLGRIANYRIRNGDSISQLCSYILSGADESKKEITTGR
notes: Mpc2, Saccharomyces cerevisiae, NCBI NM_001179293; amplified from a cDNA library with printed primers that run from the ATG to the last codon before the stop; 15N-labelled where it was the observed partner in NMR; The reverse primer carries a BamHI site, so a few vector-coded residues may lie between Mpc2 and the His-tag (surmised); also called 15N-Mpc2; yeast Mpc2
stoichiometry N [1]: 2

binding result [3]: binds
B2: MTSL-labelled Mpc2 monomer (MTSL on C86 and C111) (natural protein, Saccharomyces cerevisiae, UniProt P38857 1-129, looked up)
chain: B1 chain
modifications: MTSL spin label on C86 and C111
notes: Mpc2, Saccharomyces cerevisiae, NCBI NM_001179293; same construct as m2, not isotope-labelled; Same chain as m2 with the paramagnetic probe on its cysteines; also called MTSL–Mpc2; source: E. coli Rosetta 2 (DE3), inclusion bodies, purified

stoichiometry N [4]: 2
B3: Saccharomyces cerevisiae mitochondrial pyruvate carrier 1 (Mpc1) with C-terminal 8×His-tag, P53157 1-130 (natural protein)
chain: T1 sequence (looked up)

Source: paper PMC10216714, “NMR and Patch-Clamp Characterization of Yeast Mitochondrial Pyruvate Carrier Complexes” (Biomolecules, 2023)
